Experimental findings from the supplement of paper PMC10567573 are described below.

± gives the standard deviation.

The nature of this data set: protein stability index of a GFP-peptide fusion (GPS, HEK-293T) (PSI 1-6); higher = more stable. As to conditions: c terminus: a fixed tail appended.
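Also: 24-mer peptide tiles fused after GFP, lentivirally expressed, FACS-sorted into six equal bins by GFP/DsRed ratio, decoded by Illumina sequencing, PSI is the read-weighted mean bin number.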

On to SAFSSRGSLSLSFEREPSTSDLGT [RIPK4], for which the protein stability index reads like this: (treatment: DMSO) 4.01 ± 0.14; (treatment: MLN4924 1 uM, 8 h) 4.13 ± 0.14.
SAPQQNGQPLRPLVPDASKQRLME [PDLIM7] came in with a protein stability index (treatment: DMSO) of 4.73 ± 0.34 and a protein stability index (treatment: MLN4924 1 uM, 8 h) of 4.89 ± 0.33.
As for SATCTTGVMSAYAMCVRYDGVEVD [ADAMTSL2], the protein stability index runs as follows: (treatment: DMSO) 2.72 ± 0.32; (treatment: MLN4924 1 uM, 8 h) 2.63 ± 0.17.
With SCAGGRLFQQSCPTGLVFSNSCKC [CHIT1], the protein stability index was 2.98 ± 0.17 (treatment: DMSO) and 3.05 ± 0.24 (treatment: MLN4924 1 uM, 8 h).
Consider SCGGDGGIVVWNMDVERQETPEWL [WDFY2], for which the protein stability index (treatment: DMSO) was determined as 3.82 ± 0.34 and the protein stability index (treatment: MLN4924 1 uM, 8 h) was found to be 3.79 ± 0.18.
In the case of SDINSIRRILDELTLCKSDLESQV [KRT34], the protein stability index runs as follows: (treatment: DMSO) 3.34 ± 0.2; (treatment: MLN4924 1 uM, 8 h) 3.1 ± 0.37.
For SDLEDMEEEEGTRSPTLEPPRGRS [SMG5] the same measures were 5.37 ± 0.16 and 5.39 ± 0.2.
With SDSGSDKSLEGGGTAFDAETDSEM [SMG5], the protein stability index by setting is: (treatment: DMSO) 5.54 ± 0.15; (treatment: MLN4924 1 uM, 8 h) 5.62 ± 0.19.
As to SEADASHCIQQILESVNHCHLNGI [CAMK2D], the protein stability index came to 2.98 ± 0.27 (treatment: DMSO) and 2.89 ± 0.33 (treatment: MLN4924 1 uM, 8 h).
Take SEAKLYGRCELARVLHDFGLDGYR [SPACA3]: the protein stability index (treatment: DMSO) stood at 2.23 ± 0.15 and the protein stability index (treatment: MLN4924 1 uM, 8 h) stood at 2.42 ± 0.13.
For the sequence SEELLSLKYENDYPSVILRDPLQT [ETS1], the protein stability index reads like this: (treatment: DMSO) 4.05 ± 0.14; (treatment: MLN4924 1 uM, 8 h) 4.14 ± 0.13.
SEGACEKEKQSRDFQGRILSVDPE [RHOBTB1] came in with a protein stability index (treatment: DMSO) of 5.22 ± 0.42 and a protein stability index (treatment: MLN4924 1 uM, 8 h) of 5.12 ± 0.35.
For SEPIRRAGKSGTSTPTTPGSTAIT [MAP2] the same measures were 4.66 ± 0.25 and 4.65 ± 0.2.
Consider SEQESLLQQAQAQFRMAQEEARRN [SMG5], for which the protein stability index by setting is: (treatment: DMSO) 5.19 ± 0.2; (treatment: MLN4924 1 uM, 8 h) 5.14 ± 0.31.
As to SFFAAQAGARKIYAVEASTMAQHA [CARM1], the protein stability index (treatment: DMSO) stood at 2.8 ± 0.45 and the protein stability index (treatment: MLN4924 1 uM, 8 h) amounted to 2.78 ± 0.69.
With SFVLSSLQLGEGVEFDVLPAFDAL [OAS1], the protein stability index came to 2.45 ± 0.59 (treatment: DMSO) and 2.26 ± 0.53 (treatment: MLN4924 1 uM, 8 h).
For SHRFPEDHDPTIEDAYKIRIRIDD [RIT1], the protein stability index turned out to be 3.98 ± 0.19 (treatment: DMSO) and 4.28 ± 0.31 (treatment: MLN4924 1 uM, 8 h).
For SILRAPAYPLELQGQPDPAPRPGP [MOSPD3], the protein stability index reads like this: (treatment: DMSO) 4.53 ± 0.28; (treatment: MLN4924 1 uM, 8 h) 4.39 ± 0.43.
In the case of SKLRNYRKDLAKLHREVRSTPLTA [VTI1B], the protein stability index is, setting by setting: (treatment: DMSO) 3 ± 0.25; (treatment: MLN4924 1 uM, 8 h) 3.26 ± 0.26.
With SLARNPAPGVLTNKRKTYTESYIA [ZC2HC1A], the protein stability index by setting is: (treatment: DMSO) 3.22 ± 0.21; (treatment: MLN4924 1 uM, 8 h) 3.23 ± 0.41.
For SLHCLLDQFDKDLPVYLKKDPAYF [DENND6A] the same measures were 2.13 ± 0.41 and 2.23 ± 0.23.
As for SLISLSNNTGKNLELKFVSSLRRQ [TENT5D], the protein stability index turned out to be 2.34 ± 0.081 (treatment: DMSO) and 2.58 ± 0.098 (treatment: MLN4924 1 uM, 8 h).
Take SLKEELMCLKKNHEEEVSVLRCQL [KRT36]: the protein stability index came to 3.09 ± 0.31 (treatment: DMSO) and 3.23 ± 0.4 (treatment: MLN4924 1 uM, 8 h).
SLNGPLSTSRHVMAPVMAHVDPEE [ADAMTS4]: the protein stability index stood at 4.5 ± 0.25 (treatment: DMSO) and 4.49 ± 0.25 (treatment: MLN4924 1 uM, 8 h).
In the case of SLRDSGYFYDPIERDIEIGFLPWL [RSPH3], the protein stability index reads like this: (treatment: DMSO) 2.28 ± 0.49; (treatment: MLN4924 1 uM, 8 h) 2.37 ± 0.47.
For the sequence SLSSIATCVYIAEIAPQHRRGLLV [SLC2A12], the protein stability index amounted to 2.6 ± 0.81 (treatment: DMSO) and 2.6 ± 0.52 (treatment: MLN4924 1 uM, 8 h).
Turning to SLVKELLRMCSHGEGKINYYNFVR [EFHC1], the protein stability index runs as follows: (treatment: DMSO) 2.31 ± 0.32; (treatment: MLN4924 1 uM, 8 h) 2.46 ± 0.8.
For the sequence SMPSYSSCTVTTVQPMDRLPYQHF [TBX5], the protein stability index was determined as 2.56 ± 0.3 (treatment: DMSO) and 2.64 ± 0.17 (treatment: MLN4924 1 uM, 8 h).
As for SNPGVDFGDVSERLALRQRLKCRS [GALNT9], the protein stability index stood at 4.43 ± 0.1 (treatment: DMSO) and 4.56 ± 0.17 (treatment: MLN4924 1 uM, 8 h).
For SPGIGAVYLANQAKNQSDEAKEAK [RTP4] the same measures were 5.28 ± 0.22 and 5.28 ± 0.12.
For SPKTNGHIENGPFSLEQQLDDEDD [SRPK2] the same measures were 5.522 ± 0.051 and 5.56 ± 0.22.
In turn, SPLLETFSDLQVYSYRRLGEEALS [SLC22A15] came in with a protein stability index (treatment: DMSO) of 2.44 ± 0.31 and a protein stability index (treatment: MLN4924 1 uM, 8 h) of 2.27 ± 0.23.
Turning to SPNYPSKYPPDRECIYIIEAAPRQ [NETO1], the protein stability index was found to be 2.58 ± 0.11 (treatment: DMSO) and 2.77 ± 0.31 (treatment: MLN4924 1 uM, 8 h).
For SPVLLGWVEQAYADKCVCGPSAPP [TIAF1] the same measures were 2.67 ± 0.057 and 2.86 ± 0.28.
On to SQKDLENDPSVNSQAQETTIIASN [TOR1AIP2], for which the protein stability index stood at 5.37 ± 0.16 (treatment: DMSO) and 5.28 ± 0.29 (treatment: MLN4924 1 uM, 8 h).
SQVPTGEVFYYSCEYNFVSPSKSF [CFHR2]: the protein stability index runs as follows: (treatment: DMSO) 2.59 ± 0.85; (treatment: MLN4924 1 uM, 8 h) 2.08 ± 0.26.
For the sequence SRGYAYRDNGHSNRDEHSSRGYRN [RBMY1A1], the protein stability index reads like this: (treatment: DMSO) 4.31 ± 0.16; (treatment: MLN4924 1 uM, 8 h) 4.21 ± 0.12.
Take SRMKERAIDLNKKGKDNKHPMYRR [ZMYND11]: the protein stability index stood at 4.12 ± 0.2 (treatment: DMSO) and 4.08 ± 0.46 (treatment: MLN4924 1 uM, 8 h).
Consider SRPTGQQLESLGLLAPGEQSLPCT [KISS1], for which the protein stability index by setting is: (treatment: DMSO) 4.29 ± 0.16; (treatment: MLN4924 1 uM, 8 h) 4.38 ± 0.25.
For SRQRQSRMEKGEPYMSIQPAEDPD [SMARCE1], the protein stability index reads like this: (treatment: DMSO) 5.55 ± 0.11; (treatment: MLN4924 1 uM, 8 h) 5.57 ± 0.33.
For SRSSLMPLRNDVDKRGETTSASLL [SLC2A12] the same measures were 4.55 ± 0.15 and 4.56 ± 0.11.
Turning to SSITRQKKRLQELALALKKCKPSL [TMEM120A], the protein stability index is, setting by setting: (treatment: DMSO) 2.39 ± 0.41; (treatment: MLN4924 1 uM, 8 h) 2.81 ± 0.39.
As to SSPNLQVSSDGTLKYMEVTLRPTD [PCDHGC5], the protein stability index is 3.84 ± 0.092 (treatment: DMSO) and 4.12 ± 0.33 (treatment: MLN4924 1 uM, 8 h).
For SSSPASVTTEQLGAKMTERGSVAR [PXN] the same measures were 4.86 ± 0.42 and 4.76 ± 0.59.
For SSSYEQFNGELPNGRHKIPESQFP [SRPK2] the same measures were 4.1 ± 0.24 and 4.21 ± 0.22.
Take STSYSPLASLPLKADTKGFCNISL [PLAGL1]: the protein stability index by setting is: (treatment: DMSO) 2.38 ± 0.2; (treatment: MLN4924 1 uM, 8 h) 2.27 ± 0.2.
For STYYWPRPRRYVQPPEMIGPMRPE [GAGE1] the same measures were 2.68 ± 0.33 and 3.01 ± 0.31.
Consider SVAHLPWRMLTYKALNTFIDDLFA [CLPTM1], for which the protein stability index (treatment: DMSO) came to 2.46 ± 0.25 and the protein stability index (treatment: MLN4924 1 uM, 8 h) is 2.28 ± 0.37.
The sequence SVINNGHNQKVHMHMVDLMSSIIC [PDS5B] registered a protein stability index (treatment: DMSO) of 2.02 ± 0.27 and a protein stability index (treatment: MLN4924 1 uM, 8 h) of 2.53 ± 0.3.
As for SVNEVDFEGRTPMHVACQHGQENI [RIPK4], the protein stability index is, setting by setting: (treatment: DMSO) 4.31 ± 0.27; (treatment: MLN4924 1 uM, 8 h) 4.57 ± 0.076.
With SVNISLDNLLPGMQPSKPQQPSLN [CLINT1], the protein stability index is 3.4 ± 0.23 (treatment: DMSO) and 3.51 ± 0.16 (treatment: MLN4924 1 uM, 8 h).
In the case of SWSDGMAFCALVHSFFPDAFDYNS [SMTNL2], the protein stability index by setting is: (treatment: DMSO) 2.95 ± 0.65; (treatment: MLN4924 1 uM, 8 h) 2.9 ± 0.67.
